Experimental data as given in PMC6402988 (Nature structural & molecular biology, 2019).
Where a chain is given by its changes, count along the chain named.

Legend:
[1] = target: T1, cleaved Ebola virus glycoprotein (EBOV GPCL) (Zaire ebolavirus, Mayinga-76); test: BLI
T1 chain 1: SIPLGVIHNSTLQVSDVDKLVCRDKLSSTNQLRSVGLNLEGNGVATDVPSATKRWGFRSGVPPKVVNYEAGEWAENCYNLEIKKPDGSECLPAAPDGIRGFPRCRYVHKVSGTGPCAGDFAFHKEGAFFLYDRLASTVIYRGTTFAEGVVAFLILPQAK
T1 chain 2: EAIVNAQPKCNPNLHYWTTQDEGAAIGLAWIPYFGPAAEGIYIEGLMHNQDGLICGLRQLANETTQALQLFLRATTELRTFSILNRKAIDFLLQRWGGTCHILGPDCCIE

[2] = target: T1, cleaved Ebola virus glycoprotein (EBOV …); test: cell-based or functional assay
SUDV GP ectodomain = SUDV GP ectodomain (Sudan ebolavirus; strain not named for …, UniProt Q66814); test: cell-based or functional assay

B1: ADI-15946 IgG (antibody, V domains shown)
VH: EVQLVESGGGLVKPGGSLRLSCAASGFTFSNAWMSWVRQAPGKGLEWVGRIKSKTDGGTIDYAAPVKGRFTISRDDSKNTVYLQMTSLKTEDTAVYYCTTYTEDMRYFDWLLRGGETFDYWGQGTLVTVSS
VL: DIRLTQSPSSLSASVGDRVTITCRASHYISTYLNWYQQKPGKAPKLLIYAASNLQSGVPSRFSGSGFGTDFSLTISSLQPEDFATYHCQQSYSTPGRYTFGQGTKVEIK
**Q.** B1 was tested. Which “fold improvement in binding (KDapp) against full-length GP” value [1] did it give?
**A.** The value was 10000 fold.

**Q.** What about the “fold increased kon against EBOV GPFL” value [1] of the same binder?
**A.** Its value is 10 fold.

**Q.** And the “fold slower koff against EBOV GPFL” value [1]?
**A.** The value was over 1000 fold.

**Q.** What about the “neutralization potency against rVSV-EBOV GPCL compared to rVSV-EBOV GPFL” value [2] of the same binder?
**A.** Its value is 100 fold.

B2: 46M2 (antibody, V domains shown)
VH: B1 VH with R106A
VL: B1 VL with S65Y
**Q.** Which “fold improvement in neutralization of authentic SUDV against parental ADI-15946” value (SUDV GP ectodomain) does the source give for B2 here?
**A.** Its value is 33 fold.

B3: 46M3 (antibody, V domains shown)
VH: B1 VH with R106A
VL: B1 VL with S65Y, F67Y
**Q.** Which “fold improvement in neutralization of authentic SUDV against parental ADI-15946” value (SUDV GP ectodomain) does the source give for B3 here?
**A.** Its value is 33 fold.

B4: ADI-15946 LC^WT:HC^IGL (antibody, V domains shown)
VH: not shown
VL: B1 VL
**Q.** Does B4 bind [1]?
**A.** Result: binds
